Source: patent publication US20240018226A1

Molecular target: pHrodo-labeled 4RON human tau P301L soluble oligomer (human), P10636
Experiment: cell-based or functional assay

pHrodo-labeled 4RON human tau P301L soluble oligomer (human), P10636, sequence (P10636 other isoform, or with tags, fused parts or gaps P301L P301L): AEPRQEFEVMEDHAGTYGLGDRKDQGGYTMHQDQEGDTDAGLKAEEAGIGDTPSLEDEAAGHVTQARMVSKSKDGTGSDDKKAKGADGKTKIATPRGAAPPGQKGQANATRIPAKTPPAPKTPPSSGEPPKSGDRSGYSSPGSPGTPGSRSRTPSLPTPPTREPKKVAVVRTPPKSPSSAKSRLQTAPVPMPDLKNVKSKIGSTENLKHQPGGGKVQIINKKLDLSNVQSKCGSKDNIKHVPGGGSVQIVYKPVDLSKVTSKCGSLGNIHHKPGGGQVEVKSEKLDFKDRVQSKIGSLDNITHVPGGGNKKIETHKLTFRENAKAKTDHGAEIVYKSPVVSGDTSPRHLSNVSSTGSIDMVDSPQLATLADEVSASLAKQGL

B1: mouse 3D6 (antibody, V domains shown)
VH: EVQLQQSGADLVRPGALVKLSCKASGFNIKDYYLHWVRQRPEQGLEWIGWIDPENGDTVYDPKFQGKATITADTSSNTAYLQLGSLTSEDTAVYFCSTLDFWGQGTTLTVSS
VL: not shown
modifications: here or on the partner: labeled with pHrodo Red succinimidyl ester (sites not given)
B1 gave an IC50 of inhibition of tau internalization into B103 neuroblastoma cells (pHrodo Texas Red mean fluorescence intensity, FACS) of 9 nM.
